Laboratory results taken from patent publication US20190359687A1 (Bayer, published 2019).

Legend:
[1] = target: T1, human glycophorin A on human red blood cells (human, UniProt P02724 20-150); assay: partition to human RBC, human HemA plasma, 1 min
T1 construct: whole, on cells; also called human GPA; huGPA
T1 sequence (looked up): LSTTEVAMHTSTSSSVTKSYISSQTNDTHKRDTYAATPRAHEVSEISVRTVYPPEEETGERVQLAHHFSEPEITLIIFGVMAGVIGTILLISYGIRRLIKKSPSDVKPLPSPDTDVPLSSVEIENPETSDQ
Procedure: (§1) The supernatant containing plasma, platelets and white blood cells was discarded and the red blood cell pellet was resuspended in 10 pellet volumes of PBS (50 mM Phosphate buffer, pH7.4, 150 mM NaCl). The red blood cells were then pelleted by slow speed centrifugation and the red blood cells re-suspended in 10 volumes of PBS. This washing step was repeated 4 more times and the red blood cells finally resuspended in a volume of plasma from Hemophilia patients with less than 1% of normal levels of FVIII (GeorgeKing Bio-Medical, Overland Park, Kans.) to generate a total volume equal to the initial blood volume such that the RBC density was equal to that of normal whole blood. BDD and RBC targeted FVIII molecules were then spiked into RBC suspension in HemA plasma at 1 IU/mL, and incubated at room temperature for 2-3 hours with gentle rotation. […] An additional control was performed in which BDD or RBC targeted FVIII molecules were added at 11U/ml into the same human hemophilia A plasma and incubated for 5 minutes and 180 mins. These samples were used to determine the input FVIII activity in the presence of plasma which was used to calculate the percentage of the molecule that was bound to RBC. All plasma samples were then assayed together for FVIII activity using the Coatest SP assay (DiaPharma, Columbus, Ohio). The assay was performed following the manufacturer's instructions in a 96-well plate format. […] The plate was incubated at 37° C. for 10 minutes with shaking between each reagent addition. […] The amount of FVIII activity in the plasma reflects the amount of unbound FVIII. The FVIII activity of the same molecule spiked in to Hemophilia A plasma alone (no RBC) and incubated for 5 minutes was normalized to 100%.

[2] = target: T1, human glycophorin A on human red blood …; assay: partition to human RBC, human HemA plasma, 60 min
[3] = target: T1, human glycophorin A on human red blood …; assay: partition to human RBC, human HemA plasma, 15 min
Procedure: as §1

[4] = target: T2, Cynomolgus monkey glycophorin A on Cynomolgus monkey red blood cells (Cynomolgus monkey); assay: partition to Cyno RBC, human HemA plasma, 60 min;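 note: FVIII fusion spiked at 1 IU/mL into RBC suspension at whole-blood density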
T2 construct: whole, on cells; also called Cyno GPA; Cyno RBC
Procedure: (§2) To evaluate partition to cynomolgus monkey or human red blood cells, whole blood was draw from Cynomolgus monkey or normal human volunteers in to anticoagulant with 4% sodium citrate (Sigma, St Louis, Mo.). The red blood cells were purified by layering the whole blood on to ficoll followed by low speed centrifugation. The supernatant containing plasma, platelets and white blood cells was discarded and the red blood cell pellet was resuspended in 10 pellet volumes of PBS (50 mM Phosphate buffer, pH7.4, 150 mM NaCl). The red blood cells were then pelleted by slow speed centrifugation and the red blood cells re-suspended in 10 volumes of PBS. This washing step was repeated 4 more times and the red blood cells finally resuspended in a volume of plasma from Hemophilia patients with less than 1% of normal levels of FVIII (GeorgeKing Bio-Medical, Overland Park, Kans.) to generate a total volume equal to the initial blood volume such that the RBC density was equal to that of normal whole blood. BDD and RBC targeted FVIII molecules were then spiked into RBC suspension in HemA plasma at 1 IU/mL, and incubated at room temperature for 2-3 hours with gentle rotation. […] An additional control was performed in which BDD or RBC targeted FVIII molecules were added at 11U/ml into the same human hemophilia A plasma and incubated for 5 minutes and 180 mins. These samples were used to determine the input FVIII activity in the presence of plasma which was used to calculate the percentage of the molecule that was bound to RBC. All plasma samples were then assayed together for FVIII activity using the Coatest SP assay (DiaPharma, Columbus, Ohio). The assay was performed following the manufacturer's instructions in a 96-well plate format. […] The plate was incubated at 37° C. for 10 minutes with shaking between each reagent addition.

[5] = target: T1, human glycophorin A on human red blood …; assay: partition to human RBC, human HemA plasma, 30 min
Procedure: as §1

[6] = target: T2, Cynomolgus monkey glycophorin A on …; assay: partition to Cyno RBC, human HemA plasma, 5 min;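 note: FVIII fusion spiked at 1 IU/mL into RBC suspension at whole-blood density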
Procedure: as §2

[7] = target: T1, human glycophorin A on human red blood …; assay: partition to human RBC, human HemA plasma, 120 min
Procedure: as §1

[8] = target: T2, Cynomolgus monkey glycophorin A on …; assay: partition to Cyno RBC, human HemA plasma, 30 min;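 note: FVIII fusion spiked at 1 IU/mL into RBC suspension at whole-blood density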
[9] = target: T1, human glycophorin A on human red blood …; assay: partition to human RBC, human HemA plasma, 5 min
Procedure: as §1

[10] = target: T2, Cynomolgus monkey glycophorin A on …; assay: partition to Cyno RBC, human HemA plasma, 1 min;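 note: FVIII fusion spiked at 1 IU/mL into RBC suspension at whole-blood density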
Procedure: as §2

[11] = target: T1, human glycophorin A on human red blood …; assay: partition to human RBC, human HemA plasma, 120 min; remark: listed apart in the source
Procedure: as §1

[12] = target: T2, Cynomolgus monkey glycophorin A on …; assay: partition to Cyno RBC, human HemA plasma, 15 min;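 note: FVIII fusion spiked at 1 IU/mL into RBC suspension at whole-blood density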
[13] = target: T2, Cynomolgus monkey glycophorin A on …; assay: partition to Cyno RBC, human HemA plasma, 120 min;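 note: FVIII fusion spiked at 1 IU/mL into RBC suspension at whole-blood density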
Procedure: as §2

percentage bound to human RBC [1]: 55.2%
percentage bound to human RBC [2]: 93.5%
percentage bound to human RBC [3]: 86.6%
% bound to Cyno RBC [4]: 84.5%
percentage bound to human RBC [5]: 90.4%
% bound to Cyno RBC [6]: 65.7%
percentage bound to human RBC [7]: 95.2%
% bound to Cyno RBC [8]: 78.1%
percentage bound to human RBC [9]: 74.3%
% bound to Cyno RBC [10]: 53.4%
percentage bound to human RBC [11]: 95.2%
% bound to Cyno RBC [12]: 75.6%
% bound to Cyno RBC [13]: 86.8%
B1: TPP-9976 FVIII-scFv fusion protein (other)
chain: ATRRYYLGAVELSWDYMQSDLGELPVDARFPPRVPKSFPFNTSVVYKKTLFVEFTDHLFNIAKPRPPWMGLLGPTIQAEVYDTVVITLKNMASHPVSLHAVGVSYWKASEGAEYDDQTSQREKEDDKVFPGGSHTYVWQVLKENGPMASDPLCLTYSYLSHVDLVKDLNSGLIGALLVCREGSLAKEKTQTLHKFILLFAVFDEGKSWHSETKNSLMQDRDAASARAWPKMHTVNGYVNRSLPGLIGCHRKSVYWHVIGMGTTPEVHSIFLEGHTFLVRNHRQASLEISPITFLTAQTLLMDLGQFLLFCHISSHQHDGMEAYVKVDSCPEEPQLRMKNNEEAEDYDDDLTDSEMDVVRFDDDNSPSFIQIRSVAKKHPKTWVHYIAAEEEDWDYAPLVLAPDDRSYKSQYLNNGPQRIGRKYKKVRFMAYTDETFKTREAIQHESGILGPLLYGEVGDTLLIIFKNQASRPYNIYPHGITDVRPLYSRRLPKGVKHLKDFPILPGEIFKYKWTVTVEDGPTKSDPRCLTRYYSSFVNMERDLASGLIGPLLICYKESVDQRGNQIMSDKRNVILFSVFDENRSWYLTENIQRFLPNPAGVQLEDPEFQASNIMHSINGYVFDSLQLSVCLHEVAYWYILSIGAQTDFLSVFFSGYTFKHKMVYEDTLTLFPFSGETVFMSMENPGLWILGCHNSDFRNRGMTALLKVSSCDKNTGDYYEDSYEDISAYLLSKNNAIEPRSFSQNGGGGSTGGTGGSSGGGTGSGGGGTGGSGGTDIQLTQSPSFLSASVGDRVTITCRASSSVRYIYWFQQKPGKAPKLLIYATSFRQSGVPSRFSGSGSGTEYTLTISSLQPEDFATYYCHQRNSFPYTFGQGTKLEIKGGGGSGGGGSGGGGSGGGGSEVQLVQSGAEVKKPGASVKVSCKASGYTFTTYAIHWVRQAPGQGLEWMGYINPSSGYTRYNPKFKGRVTMTRDKSTSTAYMELRSLRSDDTAVYYCWTGTRDYWGQGTTVTVSSGGGGDIQLTQSPSFLSASVGDRVTITCRASSSVRYIYWFQQKPGKAPKLLIYATSFRQSGVPSRFSGSGSGTEYTLTISSLQPEDFATYYCHQRNSFPYTFGQGTKLEIKGGGGSGGGGSGGGGSGGGGSEVQLVQSGAEVKKPGASVKVSCKASGYTFTTYAIHWVRQAPGQGLEWMGYINPSSGYTRYNPKFKGRVTMTRDKSTSTAYMELRSLRSDDTAVYYCWTGTRDYWGQGTTVTVSSGGGGDENQSPRSFQKKTRHYFIAAVERLWDYGMSSSPHVLRNRAQSGSVPQFKKVVFQEFTDGSFTQPLYRGELNEHLGLLGPYIRAEVEDNIMVTFRNQASRPYSFYSSLISYEEDQRQGAEPRKNFVKPNETKTYFWKVQHHMAPTKDEFDCKAWAYFSDVDLEKDVHSGLIGPLLVCHTNTLNPAHGRQVTVQEFALFFTIFDETKSWYFTENMERNCRAPCNIQMEDPTFKENYRFHAINGYIMDTLPGLVMAQDQRIRWYLLSMGSNENIHSIHFSGHVFTVRKKEEYKMALYNLYPGVFETVEMLPSKAGIWRVECLIGEHLHAGMSTLFLVYSNKCQTPLGMASGHIRDFQITASGQYGQWAPKLARLHYSGSINAWSTKEPFSWIKVDLLAPMIIHGIKTQGARQKFSSLYISQFIIMYSLDGKKWQTYRGNSTGTLMVFFGNVDSSGIKHNIFNPPIIARYIRLHPTHYSIRSTLRMELMGCDLNSCSMPLGMESKAISDAQITASSYFTNMFATWSPSKARLHLQGRSNAWRPQVNNPKEWLQVDFQKTMKVTGVTTQGVKSLLTSMYVKEFLISSSQDGHQWTLFFQNGKVKVFQGNQDSFTPVVNSLDPPLLTRYLRIHPQSWVHQIALRMEVLGCEAQDLY
notes: also called PPB 7998
